Results taken from publication PMC8646042.

Target: T1, endogenous IRF3 (human (endogenous in 293T)), Q14653
T1 chain: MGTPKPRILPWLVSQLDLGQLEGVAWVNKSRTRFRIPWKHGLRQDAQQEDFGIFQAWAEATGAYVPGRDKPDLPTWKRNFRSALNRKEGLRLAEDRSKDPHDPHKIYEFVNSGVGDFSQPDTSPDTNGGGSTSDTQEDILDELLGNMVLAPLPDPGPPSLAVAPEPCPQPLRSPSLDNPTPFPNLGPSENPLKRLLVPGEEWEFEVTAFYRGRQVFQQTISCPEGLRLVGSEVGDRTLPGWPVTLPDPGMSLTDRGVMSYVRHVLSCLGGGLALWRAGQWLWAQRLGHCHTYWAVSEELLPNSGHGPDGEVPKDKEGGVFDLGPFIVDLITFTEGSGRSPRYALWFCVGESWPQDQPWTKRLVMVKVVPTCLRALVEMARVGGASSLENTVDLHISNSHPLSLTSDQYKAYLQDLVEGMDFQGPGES
Assay: native gel or EMSA; Native PAGE of lysates of 293T or MCF7 cells and western blot with anti-IRF3; SeV infection for 12 h or MAVS transfection; N4BP3 overexpressed, knocked down or knocked out
Settings: remark: other sources report otherwise

stoichiometry N: 2
B1: endogenous IRF3, Q14653 1-427 (natural protein)
chain: T1 chain
